B1: follistatin-Fc human chimera FS315-hFc (Sino Biological Inc. Catalog Number 10685-H02H) (Fc fusion)
chain: GNCWLRQAKNGRCQVLYKTELSKEECCSTGRLSTSWTEEDVNDNTLFKWMIFNGGAPNCIPCKETCENVDCGPGKKCRMNKKNKPRCVCAPDCSNITWKGPVCGLDGKTYRNECALLKARCKEQPELEVQYQGRCKKTCRDVFCPGSSTCVVDQTNNAYCVTCNRICPEPASSEQYLCGNDGVTYSSACHLRKATCLLGRSIGLAYEGKCIKAKSCEDIQCTGGKKCLWDFKVGRGRCSLCDELCPDSKSDEPVCASDNATYASECAMKEAACSSGVLLEVKHSGSCNSISEDTEEEEEDEDQDYSFPISSILEWALEVLFQGP
notes: Bought fusion protein; also called Sino Biological FS315-hFc; not shown: human Fc of the bought product
B7: FS315 (R&D Systems) (other)
chain: GNCWLRQAKNGRCQVLYKTELSKEECCSTGRLSTSWTEEDVNDNTLFKWMIFNGGAPNCIPCKETCENVDCGPGKKCRMNKKNKPRCVCAPDCSNITWKGPVCGLDGKTYRNECALLKARCKEQPELEVQYQGRCKKTCRDVFCPGSSTCVVDQTNNAYCVTCNRICPEPASSEQYLCGNDGVTYSSACHLRKATCLLGRSIGLAYEGKCIKAKSCEDIQCTGGKKCLWDFKVGRGRCSLCDELCPDSKSDEPVCASDNATYASECAMKEAACSSGVLLEVKHSGSCNSISEDTEEEEEDEDQDYSFPISSILEW

How the values were obtained:
activin = molecular target: T1, activin (UniProt P08476 311-426); assay: cell-based or functional assay
T1 sequence (looked up): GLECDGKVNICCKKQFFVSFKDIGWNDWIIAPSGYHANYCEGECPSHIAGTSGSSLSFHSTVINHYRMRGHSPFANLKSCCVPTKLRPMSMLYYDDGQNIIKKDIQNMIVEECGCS

myostatin [1] = molecular target: T2, myostatin (UniProt O14793 267-375); assay: cell-based or functional assay
T2 sequence (looked up): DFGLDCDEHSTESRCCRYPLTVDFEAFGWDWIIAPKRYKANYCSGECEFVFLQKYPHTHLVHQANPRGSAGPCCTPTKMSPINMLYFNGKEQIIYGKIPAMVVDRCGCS

myostatin [2] = molecular target: T2, myostatin; assay: Biacore SPR (Table 3)
Description: (§1) Specifically, commercially available follistatins (FS315, manufactured by R&D Systems and follistatin-Fc human chimera FS315-hFc, manufactured by Sino Biological), and FS315-GAG3-mFc fusion proteins were used to assess binding affinity and kinetics to activin, myostatin, and BMPs using Biacore assays. Briefly, FS315 was immobilized onto a CM5 chip, and follistatin-Fc fusion proteins were captured using human or mouse antibody capture kits (GE Healthcare). Post amine-coupling, a concentration series of activin, myostatin, or BMPs (e.g., BMP-2, -4, -6, -7, -9, -10, and GDF-1) was added as soluble analyte at 25° C. sActRTIB-hFc was used as a control. Binding affinities (Kd) and kinetics were determined using standard methods.

[3] = molecular target: B1; assay: Biacore SPR, 25 C; Fc fusion captured with antibody capture kit, ligand as soluble analyte
Description: as §1

FS315 (R&D Systems) [4] = molecular target: B7; assay: Biacore SPR, 25 C; FS315 immobilized on CM5 chip, ligand as soluble analyte
Description: as §1

sActRIIB-hFc = molecular target: T3, sActRIIB-hFc (UniProt Q13705 25-134, limits assumed); assay: Biacore SPR, 25 C; Fc fusion captured with human antibody capture kit, ligand as soluble analyte
T3 construct: Control protein in the Biacore assay; also called sActRTIB-hFc; sActRIIB-Fc; not shown: human Fc
T3 sequence (looked up): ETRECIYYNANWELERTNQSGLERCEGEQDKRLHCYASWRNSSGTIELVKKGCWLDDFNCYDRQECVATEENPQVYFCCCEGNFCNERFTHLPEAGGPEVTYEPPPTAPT
Description: as §1

[5] = molecular target: B1; assay: as above
Description: as §1

FS315 (R&D Systems) [6] = molecular target: B7; assay: Biacore SPR, 25 C; FS315 immobilized on CM5 chip, ligand as soluble analyte; Table 3 cell for this pair: fitted KD, FS315 immobilized on CM5, BMP-10 as analyte, 25 C
Description: as §1

myostatin [7] = molecular target: T2, myostatin; assay: cell-based or functional assay; remark: listed apart in the source

B1
IC50, CAGA-luciferase reporter assay for Smad2/3 signaling (1.2 nM activin) (activin): 2900 pM | IC50, CAGA-luciferase reporter assay for Smad2/3 signaling (1.2 nM myostatin) (myostatin [1]): 2990 pM | fold increase of binding affinity against follistatin (FS315) (myostatin [2]): ≥ 10 fold

B2: BMP-9 (ligand, UniProt Q9UK05 320-429, looked up)
chain: SAGAGSHCQKTSLRVNFEDIGWDSWIIAPKEYEAYECKGGCFFPLADDVTPTKHAIVQTLVHLKFPTKVGKACCVPTKLSPISVLYKDDMGVPTLKYHYEGMSVAECGCR
binding result [3]: no binding | binding result (FS315 (R&D Systems) [4]): no binding

B3: GDF-11 (ligand, UniProt O95390 299-407, looked up)
chain: NLGLDCDEHSSESRCCRYPLTVDFEAFGWDWIIAPKRYKANYCSGQCEYMFMQKYPHTHLVQQANPRGSAGPCCTPTKMSPINMLYFNDKQQIIYGKIPGMVVDRCGCS
Kd (sActRIIB-hFc): 340 pM | Kd [5]: 820 pM

B4: BMP-4 (ligand, UniProt P12644 293-408, looked up)
chain: SPKHHSQRARKKNKNCRRHSLYVDFSDVGWNDWIVAPPGYQAFYCHGDCPFPLADHLNSTNHAIVQTLVNSVNSSIPKACCVPTELSAISMLYLDEYDKVVLKNYQEMVVEGCGCR
Kd (FS315 (R&D Systems) [4]): 14000 pM

B5: BMP-10 (ligand, UniProt O95393 317-424, looked up)
chain: NAKGNYCKRTPLYIDFKEIGWDSWIIAPPGYEAYECRGVCNYPLAEHLTPTKHAIIQALVHLKNSQKASKACCVPTKLEPISILYLDKGVVTYKFKYEGMAVSECGCR
Kd (FS315 (R&D Systems) [6]): 100000 pM | Kd (sActRIIB-hFc): 10 pM | Kd [5]: 150000 pM

B6: BMP-7 (ligand, UniProt P18075 293-431, looked up)
chain: STGSKQRSQNRSKTPKNQEALRMANVAENSSSDQRQACKKHELYVSFRDLGWQDWIIAPEGYAAYYCEGECAFPLNSYMNATNHAIVQTLVHFINPETVPKPCCAPTQLNAISVLYFDDSSNVILKKYRNMVVRACGCH
Kd (FS315 (R&D Systems) [4]): 38000 pM

B7
IC50, CAGA-luciferase reporter assay for Smad2/3 signaling (1.2 nM activin) (activin): 400 pM | IC50, CAGA-luciferase reporter assay for Smad2/3 signaling (1.2 nM myostatin) (myostatin [1]): 450 pM | IC50 (read off the curve); CAGA-luciferase reporter in HEK293 cells, myostatin (1.2 nM)-induced Smad2/3 signalling (myostatin [7]): ~200 pM

B8: BMP-2 (ligand, UniProt P12643 283-396, looked up)
chain: QAKHKQRKRLKSSCKRHPLYVDFSDVGWNDWIVAPPGYHAFYCHGECPFPLADHLNSTNHAIVQTLVNSVNSKIPKACCVPTELSAISMLYLDENEKVVLKNYQDMVVEGCGCR
binding result [3]: no binding | Kd (FS315 (R&D Systems) [4]): 440000 pM

B9: BMP-6 (ligand, UniProt P22004 382-513, looked up)
chain: QQSRNRSTQSQDVARVSSASDYNSSELKTACRKHELYVSFQDLGWQDWIIAPKGYAANYCDGECSFPLNAHMNATNHAIVQTLVHLMNPEYVPKPCCAPTKLNAISVLYFDDNSNVILKKYRNMVVRACGCH
Kd (FS315 (R&D Systems) [4]): 360 pM | Kd [5]: 900 pM

Source: patent US20180305421A1 (SHIRE HUMAN GENETIC THERAPIES, published 2018)
